Measured values taken from patent publication US20140093540A1 (published 2014).

Assays:
[1] = molecular target: BSG-SCd4d3+4bio (human; rat) (UniProt P35613); experiment: SPR (BIAcore T100, 37° C.), Rh5 injected over BSG-S captured on streptavidin, equilibrium, non-linear curve fit
[2] = molecular target: BSG-L bait (biotinylated ectodomain of the long, three domain isoform of BASIGIN) (human; rat) (UniProt P35613); experiment: SPR (BIAcore T100, 37° C.), Rh5 injected over the immobilised three domain isoform of BSG
[3] = molecular target: BSG-SCd4d3+4bio (human; rat) (UniProt P35613); experiment: SPR (BIAcore T100, 37° C.), kinetic analysis at 100 µl/min, global 1:1 fit
[4] = molecular target: human BSG on erythrocytes (human) (UniProt P35613); experiment: cell-based or functional assay
human BSG on erythrocytes (human), sequence (P35613 22-385): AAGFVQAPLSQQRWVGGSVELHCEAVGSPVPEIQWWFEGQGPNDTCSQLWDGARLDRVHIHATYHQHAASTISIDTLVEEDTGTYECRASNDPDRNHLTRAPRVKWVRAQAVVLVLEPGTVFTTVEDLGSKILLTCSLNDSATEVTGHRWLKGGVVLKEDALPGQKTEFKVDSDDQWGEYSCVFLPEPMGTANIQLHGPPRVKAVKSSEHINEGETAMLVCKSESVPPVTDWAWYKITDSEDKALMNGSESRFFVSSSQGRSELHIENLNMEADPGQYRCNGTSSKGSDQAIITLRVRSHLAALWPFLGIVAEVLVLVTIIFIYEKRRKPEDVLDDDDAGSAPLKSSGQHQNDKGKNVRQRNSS

[5] = molecular target: P. falciparum invasion ligand Rh5 (of the parasites in the invasion assays) (Plasmodium falciparum); experiment: cell-based or functional assay
[6] = molecular target: T1, biotinylated CD4 domains 3+4 alone (negative control) (rat, UniProt P05540 207-394, enzymatically biotinylated on the C-terminal biotinylation sequence); experiment: flow cytometry, protein-coated fluorescent microbeads on human erythrocytes
T1 construct: domain: domains 3 and 4; Immobilised on streptavidin-coated Nile Red fluorescent microbeads in the assay; also called Cd4d3+4; CD4-coated microbeads
T1 sequence: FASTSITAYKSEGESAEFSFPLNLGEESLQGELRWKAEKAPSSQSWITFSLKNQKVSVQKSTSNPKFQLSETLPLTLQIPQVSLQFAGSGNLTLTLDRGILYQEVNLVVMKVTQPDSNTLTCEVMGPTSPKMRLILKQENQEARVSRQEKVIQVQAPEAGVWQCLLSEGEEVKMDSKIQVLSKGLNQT

Q: Which results are given for “PfRh5Cd4d3+4-6H (from UniProt P05540 207-394) (ligand)”?
A: Kd [1]: 1140 nM; Kd [2]: 710 nM; koff [2]: 0.144 s⁻¹; interaction half-life [3]: 2.9 s; koff [3]: 0.24 s⁻¹; kon [3]: 225000 M⁻¹ s⁻¹

Q: With MEM-M6/6 (antibody) as the molecule, how does the concentration that prevented all detectable invasion, 3D7 strain, microscopy [4] read?
A: > 10 µg/mL

Q: For “BSG-S-Cd4d3+4-COMP-His (from UniProt P35613 138-325; P05540 207-394; P35444 28-72) (receptor)”, which inhibition of erythrocyte invasion, Dd2 P. falciparum strain, IC50 [5] is on record?
A: 1000 nM

B1: GLYCOPHORIN A (GYPA) on human erythrocytes (receptor)
chain: LSTTEVAMHTSTSSSVTKSYISSQTNDTHKRDTYAATPRAHEVSEISVRTVYPPEEETGERVQLAHHFSEPEITLIIFGVMAGVIGTILLISYGIRRLIKKSPSDVKPLPSPDTDVPLSSVEIENPETSDQ
modifications: sialylated (binding was lost after neuraminidase treatment of the cells)
notes: whole, on cells; also called native GYPA
Q: Does B1 bind [6]?
A: no binding
